Data as given in the supplement of paper PMC7125110.
Fewer inactive variants are shown than the library holds.

B1: glmS ribozyme (parent)
chain: AUAAAAGCGCCAGAACUACAGAAAUGUAGUUGACGAGGAGGAGGUUUAUCGAAUUUUCGGCGGAUGCCUCCAAA

Assays:
Settings in all cases: with glucosamine-6-phosphate
[1] = variants of: B1; assay: self-cleavage kobs at 40 uM GlcN6P; higher = faster cleavage; RNA array
Method in brief: (§1)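 Barcoded ribozyme variants were transcribed in situ on sequenced MiSeq chips by E. coli RNA polymerase. At 37 °C, a hybridised Cy3 probe tracked them while glucosamine-6-phosphate (40 μM to 10 mM) in HEPES/KCl/Mg(OAc)2 buffer flowed in and tiles were imaged over ~14 h. Per-tile medians of signals normalised to baseline and to non-cleaving reference variants were fit to one- or two-exponential decays, giving kobs. kcat and KM came from weighted Michaelis–Menten fits across concentrations.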

[2] = variants of: B1; assay: self-cleavage kobs at 160 uM GlcN6P; higher = faster cleavage; RNA array
Method in brief: as §1

[3] = variants of: B1; assay: self-cleavage kobs at 640 uM GlcN6P; higher = faster cleavage; RNA array
Method in brief: as §1

[4] = variants of: B1; assay: self-cleavage kobs at 2500 uM GlcN6P; higher = faster cleavage; RNA array
Method in brief: as §1

[5] = variants of: B1; assay: self-cleavage kobs at 10000 uM GlcN6P; higher = faster cleavage; RNA array
Method in brief: as §1

G35A C67A
< 1e-05 s⁻¹: self-cleavage kobs at 40 uM GlcN6P [1] | self-cleavage kobs at 160 uM GlcN6P [2] | self-cleavage kobs at 640 uM GlcN6P [3] | self-cleavage kobs at 2500 uM GlcN6P [4]

C34A G37U G44U
< 1e-05 s⁻¹: self-cleavage kobs at 40 uM GlcN6P [1]

A33U A39U G44C G63C C67G
< 1e-05 s⁻¹: self-cleavage kobs at 40 uM GlcN6P [1] | self-cleavage kobs at 10000 uM GlcN6P [5]

G32C A52C
< 1e-05 s⁻¹: self-cleavage kobs at 40 uM GlcN6P [1] | self-cleavage kobs at 160 uM GlcN6P [2] | self-cleavage kobs at 640 uM GlcN6P [3] | self-cleavage kobs at 2500 uM GlcN6P [4]

U31C G63C
< 1e-05 s⁻¹: self-cleavage kobs at 40 uM GlcN6P [1] | self-cleavage kobs at 160 uM GlcN6P [2] | self-cleavage kobs at 640 uM GlcN6P [3] | self-cleavage kobs at 10000 uM GlcN6P [5]

A33G G37U U46G A52G G62A
< 1e-05 s⁻¹: self-cleavage kobs at 40 uM GlcN6P [1]

A33C G51A G60C
< 1e-05 s⁻¹: self-cleavage kobs at 40 uM GlcN6P [1] | self-cleavage kobs at 640 uM GlcN6P [3]

C34A A53C
< 1e-05 s⁻¹: self-cleavage kobs at 40 uM GlcN6P [1] | self-cleavage kobs at 640 uM GlcN6P [3] | self-cleavage kobs at 2500 uM GlcN6P [4] | self-cleavage kobs at 10000 uM GlcN6P [5]

G32A A48U C70U
< 1e-05 s⁻¹: self-cleavage kobs at 40 uM GlcN6P [1]

A33G C58U
< 1e-05 s⁻¹: self-cleavage kobs at 40 uM GlcN6P [1] | self-cleavage kobs at 2500 uM GlcN6P [4] | self-cleavage kobs at 10000 uM GlcN6P [5]

A33G C58A
< 1e-05 s⁻¹: self-cleavage kobs at 40 uM GlcN6P [1] | self-cleavage kobs at 10000 uM GlcN6P [5]

G32U G43C
< 1e-05 s⁻¹: self-cleavage kobs at 40 uM GlcN6P [1] | self-cleavage kobs at 160 uM GlcN6P [2] | self-cleavage kobs at 640 uM GlcN6P [3] | self-cleavage kobs at 2500 uM GlcN6P [4]

G32U A52C
< 1e-05 s⁻¹: self-cleavage kobs at 40 uM GlcN6P [1] | self-cleavage kobs at 640 uM GlcN6P [3] | self-cleavage kobs at 10000 uM GlcN6P [5]

C34A U45C
< 1e-05 s⁻¹: self-cleavage kobs at 40 uM GlcN6P [1] | self-cleavage kobs at 160 uM GlcN6P [2] | self-cleavage kobs at 640 uM GlcN6P [3] | self-cleavage kobs at 2500 uM GlcN6P [4] | self-cleavage kobs at 10000 uM GlcN6P [5]

A33U G44U A52U
< 1e-05 s⁻¹: self-cleavage kobs at 40 uM GlcN6P [1] | self-cleavage kobs at 160 uM GlcN6P [2] | self-cleavage kobs at 640 uM GlcN6P [3] | self-cleavage kobs at 2500 uM GlcN6P [4]

C34G G40C
< 1e-05 s⁻¹: self-cleavage kobs at 40 uM GlcN6P [1] | self-cleavage kobs at 640 uM GlcN6P [3] | self-cleavage kobs at 10000 uM GlcN6P [5]

A33C G38C
< 1e-05 s⁻¹: self-cleavage kobs at 40 uM GlcN6P [1] | self-cleavage kobs at 160 uM GlcN6P [2] | self-cleavage kobs at 640 uM GlcN6P [3] | self-cleavage kobs at 2500 uM GlcN6P [4]

A33C G38A
< 1e-05 s⁻¹: self-cleavage kobs at 40 uM GlcN6P [1] | self-cleavage kobs at 160 uM GlcN6P [2] | self-cleavage kobs at 640 uM GlcN6P [3] | self-cleavage kobs at 2500 uM GlcN6P [4] | self-cleavage kobs at 10000 uM GlcN6P [5]

G32U C34U
< 1e-05 s⁻¹: self-cleavage kobs at 40 uM GlcN6P [1] | self-cleavage kobs at 160 uM GlcN6P [2] | self-cleavage kobs at 640 uM GlcN6P [3] | self-cleavage kobs at 10000 uM GlcN6P [5]

C34A C61U C67U
< 1e-05 s⁻¹: self-cleavage kobs at 40 uM GlcN6P [1] | self-cleavage kobs at 10000 uM GlcN6P [5]

C34A U56A
< 1e-05 s⁻¹: self-cleavage kobs at 40 uM GlcN6P [1] | self-cleavage kobs at 160 uM GlcN6P [2] | self-cleavage kobs at 640 uM GlcN6P [3] | self-cleavage kobs at 2500 uM GlcN6P [4]
